In patent US20210380994A1, “LACTOCOCCUS LACTIS EXPRESSION SYSTEM FOR DELIVERING PROTEINS EFFICACIOUS FOR THE TREATMENT OF EPITHELIAL BARRIER FUNCTION DISORDERS” (Second Genome, Inc., priority 2018, published 2021):

Legend:
[1] = PTM of SG-11 versus SG-11V5 after storage, LC-MS/MS (Example 10); format: physicochemical
Method: For this analysis, PTMs of wildtype SG-11 (SEQ ID NO:7) and SG-11V5 (SEQ ID NO:19) were compared. In the first analysis (results provided in Table 10 below), the proteins were stored at a concentration of 1 mg/ml in Buffer 1 (50 mM NaPO4, pH 8, 150 mM NaCl, 10% glycerol) and stored for 2 weeks at either 4° C. or 40° C. The proteins were then treated with DTT and Iodoacetamide (IAA), followed by trypsin digestion. The digested samples were then analyzed by Waters ACQUITY UPLC couples to Xevo G2-XS QTOF mass spectrometer using a Protein BEH C18 column.
In a second analysis, the SG-11 (SEQ ID NO:7) and SG-11V5 (SEQ ID NO:19) proteins were each stored at 40° C. in a variety of buffers. The storage buffer used in this experiment was 100 mM NaPO4, pH7, with 10% sorbitol (+Sor) or without 10% sorbitol (−Sor) and with 10% glycerol (+Gly) or without 10% glycerol (−Gly) as indicated in Table 11. […] There were also differences in levels of N137 deamidation for the two proteins with the presence of at least glycerol and also the presence of both sorbitol and glycerol resulting in large decreases in N137 deamidation.

[2] = system: human colonic epithelial cells (HCT8 enterocytes and HT29-MTX goblet cells); assay: trans-epithelial electrical resistance (TEER) assay, epithelial/monocyte co-culture disrupted by heat killed E. coli; format: cell-based
Method: Assays were performed as described below in trans-well plates where co-cultures of multiple cell types were performed utilizing a permeable membrane to separate cells. In the apical (top) chamber, human colonic epithelial cells, consisting of a mixture of enterocytes and goblet cells, were cultured until cells obtained tight junction formation and barrier function capacity as assessed by measurement of trans-epithelial electrical resistance (TEER). In the basolateral chamber, monocytes were cultured separately. Epithelial […] were primed with inflammatory cytokines. The assays measured the effect of a therapeutic protein, e.g., SG-11, on epithelial barrier function, muc2 gene expression, and production of cytokines.
Cell culture. The HCT8 human enterocyte cell line (ATCC Cat. No. CCL-244) was maintained in RPMI-1640 medium supplemented with 10% fetal bovine seam, 100 IU/ml penicillin, 100 ? g/ml streptomycin, 10 ? g/ml gentamicin and 0.25 μg/ml amphotericin (cRPMI). HT29-MTX human goblet cells (Sigma-Aldrich (St. Louis, Mo.; Cat. No. 12040401) were maintained in DMEM medium with 10% fetal bovine serum, 100 IU/ml penicillin, 100 ? g/ml streptomycin, 10 ? g/ml gentamicin and 0.25 μg/ml amphotericin (cDMEM). Epithelial cells were passaged by trypsinization and were used between 5 and 15 passages following thawing from liquid nitrogen stocks. U937 monocytes (ATCC Cat. No. 700928) were maintained in cRPMI medium as a suspension culture, and split by dilution as needed to maintain cells between 5×10^5 and 2×10^6 cell/ml. U937 cells were used up to passage 18 following thawing from liquid nitrogen stocks.
Epithelial cell culture. A mixture of HCT8 enterocytes and HT29-MTX goblet cells were plated at a 9:1 ratio, respectively, in the apical chamber of the transwell plate as described previously (Berget et al., 2017, Int J Mol Sci, 18:1573; Beduneau et al., 2014. Eur J Pharm Biopharm, 87:290-298). A total of 10^5 cells were plated in each well (9×10^4 HCT cells and 1×10^4 HT29-MTX cells per well). Epithelial cells were trypsinized from culture flasks and viable cells determined by trypan blue counting. The correct volumes of each cell type were combined in a single tube and centrifuged. The cell pellet was resuspended in cRPMI and added to the apical chamber of the transwell plate. Celle were cultured for 8 to 10 days at 37° C.+5% CO2, and media was changed every 2 days.
Monocyte culture. On day 6 of epithelial cell culture 2×10^5 cells/well U937 monocytes were plated into a 96 well receiver plate. Cells were cultured at 37° C.+5% CO2 and media was changed every 24 hours for four days.
Co-culture assay. Following 8-10 days of culture, 10 ng/ml IFN-© was added to the basolateral chamber of the transwell plate containing enterocytes, for 24 hours at 37° C.+5% CO2. After 24 hours, fresh cRPMI was added to the epithelial cell culture plate. TEER readings were measured after the IFN-© treatment and were used as the pre-treatment TEER value. SG-11 was then added to the apical chamber of the transwell plate at a final concentration of 1 ? g/ml (40 nM). The myosin light chain kinase (MLCK) inhibitor peptide 18 (BioTechne, Minneapolis, Minn.) was used at 50 nM as a positive control to prevent inflammation induced barrier disruption (Zolotarevsky et al., 2002, Gastroenterology. 123:163-172). […]

[3] = for precipitation: pH 5.2
Method: Effect of additives was also tested at the 3 different pH conditions: 150 mM NaCl (FIGS. 15A, 15D and 15G); 150 mM NaCl and 100 mM arginine (FIGS. 15B, 15E and 15H): and 150 mM NaCl and 0.5 M sorbitol (FIGS. 15C, 15F and 15I). Stability was analyzed by analytical SEC.
Effect of additives was also tested at the 3 different pH conditions: 150 mM NaCl (FIGS. 16A, 16D and 16G); 150 mM NaCl and 100 mM Arg (FIGS. 16B, 16E and 16H); and 150 mM NaCl and 0.5 M sorbitol (FIGS. 16C, 16F and 16I). Stability was analyzed by analytical SEC.

[4] = 1 mg/ml in Buffer 1 (50 mM NaPO4, pH 8, 150 mM NaCl, 10% glycerol), 2 weeks at 4° C.
[5] = 1 mg/ml in Buffer 1, 2 weeks at 4° C.
[6] = 1 mg/ml in Buffer 1, 2 weeks at 40° C.
[7] = 40° C., 100 mM NaPO4, pH7, + Sor − Gly
[8] = 40° C., 100 mM NaPO4, pH7, + Sor − Sly (so in the source)
[9] = 40° C., 100 mM NaPO4, pH7, − Sor − Gly (first column)
[10] = 40° C., 100 mM NaPO4, pH7, − Sor − Gly (third column as printed)
[11] = Example 12, 1 μg/ml (40 nM), 6 hours pre-incubation, SG-11 = SEQ ID NO:9, HK E. coli alone 78.6%, FIG. 17

B1: SG-11: Roseburia hominis protein comprising SEQ ID NO:3; tested as SEQ ID NO:5, SEQ ID NO:7 or FLAG-tagged SEQ ID NO:9 (protein, listed as Rosburia hominis)
chain: LEGEESVVYVGKKGVIASLDVETLDQSYYDETELKSYVDAEVEDYTAEHGKNAVKVESLKVEDGVAKLKMKYKTPEDYTAFNGIELYQGKVVASLAAGYVYDGEFARVEEGKVVGAATKQDIYSEDDLKVAIIRANTDVKVDGEICYVSCQNVKLTGKDSVSIRDGYYLETGSVTASVDVTGQESVGTEQLSGTEQMEMTGEPVNADDTEQTEAAAGDGSFETDVYTFIVYK
Oxidation of M1 [1, 4]: 8.9%
Deamidation of N83 [1, 5]: 19.4%
Deamidation of N137 [1, 5]: 1.0%
Deamidation of N83 [1, 6]: 98.1%
Deamidation of N137 [1, 6]: 0.9%
Oxidation of M1 [1, 6]: 12.5%
Deamidation of N83 [1, 7]: 93.9%
Deamidation of N137 [1, 7]: 2.6%
Oxidation of M1 [1, 7]: 12.1%
Deamidation of N83 [1, 8]: 87.4%
Deamidation of N137 [1, 8]: 2.5%
Oxidation of M1 [1, 8]: 27.8%
Deamidation of N83 [1, 9]: 98.1%
Deamidation of N137 [1, 9]: 0.9%
Oxidation of M1 [1, 9]: 20%
Deamidation of N83 [1, 10]: 96.2%
Deamidation of N137 [1, 10]: 3.0%
Oxidation of M1 [1, 10]: 38.6%
TEER following disruption by HK E. coli [2, 11]: 89.5%
TEER following disruption by HK E. coli ([2]; Example 15, 1 μg/ml, 6 hours pre-incubation, SG-11 = SEQ ID NO:9, HK E. coli alone 78.6%, FIG. 28): 89.5%
TEER following disruption by HK E. coli ([2]; SG-11 1 μg/ml added 6 hours prior to HK E. coli, HK E. coli alone 53.5%, FIG. 1B): 60.6%
TEER following disruption by HK E. coli ([2]; SG-11 (SEQ ID NO:5 or 9) 1 μg/ml (40 nM) added 30 minutes prior to HK E. coli, HK E. coli alone 55.8%, FIG. 1A): 62%
aggregate formation by analytical SEC ([3]; 100 mM arginine at pH 7.0): greatly suppressed
precipitation [3]: precipitated

B2: SG-11V5: variant of SEQ ID NO:7 with N53S, N83S, C147V, C151S (protein)
chain: MLEGEESVVYVGKKGVIASLDVETLDQSYYDETELKSYVDAEVEDYTAEHGKSAVKVESLKVEDGVAKLKMKYKTPEDYTAFSGIELYQGKVVASLAAGYVYDGEFARVEEGKVVGAATKQDIYSEDDLKVAIIRANTDVKVDGEIVYVSSQNVKLTGKDSVSIRDGYYLETGSVTASVDVTGQESVGTEQLSGTEQMEMTGEPVNADDTEQTEAAAGDGSFETDVYTFIVYK
modifications: Artificial variant of SG-11 (N53S, N83S, C147V, C151S)
Oxidation of M1 [1, 4]: 2.5%
Deamidation of N137 [1, 5]: 0.1%
Deamidation of N137 [1, 6]: 0.3%
Oxidation of M1 [1, 6]: 4.7%
Deamidation of N137 [1, 7]: 3.3%
Oxidation of M1 [1, 7]: 3.3%
Deamidation of N137 [1, 8]: 0.1%
Oxidation of M1 [1, 8]: 5.9%
Deamidation of N137 [1, 9]: 1.5%
Oxidation of M1 [1, 9]: 2.7%
Deamidation of N137 [1, 10]: 0.4%
Oxidation of M1 [1, 10]: 5.6%
TEER following disruption by HK E. coli [2, 11]: 89.1%
aggregation by analytical SEC ([3]; all conditions tested (pH 5.2, 7.0, 8.0; NaCl, arginine, sorbitol)): did not show a large amount of aggregation
precipitation [3]: precipitated
